Laboratory results: patent publication US20160120951A1 (ZEALAND PHARMA A S, published 2016)
Numbered stars: 1 amine (or outer) side, 2 acyl side, 3 side chain; on linkers, the order of the positions; unused ones are H or OH. Square brackets hold non-standard residues; d marks the D form. Side chains are listed from the residue outwards. * marks the point of attachment. isoGlu = used interchangeably with γ-Glu; γGlu = O=C(O)[C@H](CCC(=O)[*:2])N[*:1]; Palmitoyl = CCCCCCCCCCCCCCCC(=O)*; Aib = CC(C)(N)C(=O)O

B1: Compound 21 (peptide)
peptide: HXQGTFTSDYSKYLDSKAAHDFVEWLLSA
modifications: Aib at position 2; K(Hexadecanoyl-isoGlu) at position 17; free C-terminal acid (OH)
B2: Compound 28 (peptide)
peptide: HXQGTFTSDYSKYLDSKAAHDFVEWLLSA
modifications: Aib at position 2; K(Hexadecanoyl-E) (Hexadecanoyl-αGlu) at position 17; C-terminal amide (NH2)
B3: Compound 18 (peptide)
peptide: H-H[Aib]QGTFTSDYSKYLDSK([γGlu-Palmitoyl])AAHDFVEWLLS-OH
SMILES: CCCCCCCCCCCCCCCC(=O)N[C@@H](CCC(=O)NCCCC[C@H](NC(=O)[C@H](CO)NC(=O)[C@H](CC(=O)O)NC(=O)[C@H](CC(C)C)NC(=O)[C@H](Cc1ccc(O)cc1)NC(=O)[C@H](CCCCN)NC(=O)[C@H](CO)NC(=O)[C@H](Cc1ccc(O)cc1)NC(=O)[C@H](CC(=O)O)NC(=O)[C@H](CO)NC(=O)[C@@H](NC(=O)[C@H](Cc1ccccc1)NC(=O)[C@@H](NC(=O)CNC(=O)[C@H](CCC(N)=O)NC(=O)C(C)(C)NC(=O)[C@@H](N)Cc1c[nH]cn1)[C@@H](C)O)[C@@H](C)O)C(=O)N[C@@H](C)C(=O)N[C@@H](C)C(=O)N[C@@H](Cc1c[nH]cn1)C(=O)N[C@@H](CC(=O)O)C(=O)N[C@@H](Cc1ccccc1)C(=O)N[C@H](C(=O)N[C@@H](CCC(=O)O)C(=O)N[C@@H](Cc1c[nH]c2ccccc12)C(=O)N[C@@H](CC(C)C)C(=O)N[C@@H](CC(C)C)C(=O)N[C@@H](CO)C(=O)O)C(C)C)C(=O)O
B4: Compound 24 (peptide)
peptide: HXQGTFTSDYSKYLDSKAAHDFVEWLLSA
modifications: Aib at position 2; K([2-Butyloctanoyl]-isoGlu) at position 17; C-terminal amide (NH2)
B5: Compound 30 (peptide)
peptide: HXQGTFTSDYSKYLDSKAAHDFVEWLLSA
modifications: Aib at position 2; K(Hexadecanoyl-isoLys) at position 17; C-terminal amide (NH2)
B6: Compound 34 (peptide)
peptide: H-H[Aib]QGTFTSDYSKYLDK([γGlu-Palmitoyl])KAAHDFVEWLLSA-NH2
SMILES: CCCCCCCCCCCCCCCC(=O)N[C@@H](CCC(=O)NCCCC[C@H](NC(=O)[C@H](CC(=O)O)NC(=O)[C@H](CC(C)C)NC(=O)[C@H](Cc1ccc(O)cc1)NC(=O)[C@H](CCCCN)NC(=O)[C@H](CO)NC(=O)[C@H](Cc1ccc(O)cc1)NC(=O)[C@H](CC(=O)O)NC(=O)[C@H](CO)NC(=O)[C@@H](NC(=O)[C@H](Cc1ccccc1)NC(=O)[C@@H](NC(=O)CNC(=O)[C@H](CCC(N)=O)NC(=O)C(C)(C)NC(=O)[C@@H](N)Cc1c[nH]cn1)[C@@H](C)O)[C@@H](C)O)C(=O)N[C@@H](CCCCN)C(=O)N[C@@H](C)C(=O)N[C@@H](C)C(=O)N[C@@H](Cc1c[nH]cn1)C(=O)N[C@@H](CC(=O)O)C(=O)N[C@@H](Cc1ccccc1)C(=O)N[C@H](C(=O)N[C@@H](CCC(=O)O)C(=O)N[C@@H](Cc1c[nH]c2ccccc12)C(=O)N[C@@H](CC(C)C)C(=O)N[C@@H](CC(C)C)C(=O)N[C@@H](CO)C(=O)N[C@@H](C)C(N)=O)C(C)C)C(=O)O
B7: Compound 31 (peptide)
peptide: HXQGTFTSDYSKYLDSKAAHDFVEWLLSA
modifications: Aib at position 2; K(Hexadecanoyl-[3-Aminopropanoyl]) at position 17; C-terminal amide (NH2)
B8: Compound 20 (peptide)
peptide: H-H[Aib]EGTFTSDYSKYLDSK([γGlu-Palmitoyl])AAHDFVEWLLSA-OH
SMILES: CCCCCCCCCCCCCCCC(=O)N[C@@H](CCC(=O)NCCCC[C@H](NC(=O)[C@H](CO)NC(=O)[C@H](CC(=O)O)NC(=O)[C@H](CC(C)C)NC(=O)[C@H](Cc1ccc(O)cc1)NC(=O)[C@H](CCCCN)NC(=O)[C@H](CO)NC(=O)[C@H](Cc1ccc(O)cc1)NC(=O)[C@H](CC(=O)O)NC(=O)[C@H](CO)NC(=O)[C@@H](NC(=O)[C@H](Cc1ccccc1)NC(=O)[C@@H](NC(=O)CNC(=O)[C@H](CCC(=O)O)NC(=O)C(C)(C)NC(=O)[C@@H](N)Cc1c[nH]cn1)[C@@H](C)O)[C@@H](C)O)C(=O)N[C@@H](C)C(=O)N[C@@H](C)C(=O)N[C@@H](Cc1c[nH]cn1)C(=O)N[C@@H](CC(=O)O)C(=O)N[C@@H](Cc1ccccc1)C(=O)N[C@H](C(=O)N[C@@H](CCC(=O)O)C(=O)N[C@@H](Cc1c[nH]c2ccccc12)C(=O)N[C@@H](CC(C)C)C(=O)N[C@@H](CC(C)C)C(=O)N[C@@H](CO)C(=O)N[C@@H](C)C(=O)O)C(C)C)C(=O)O
B9: Compound 27 (peptide)
peptide: HXQGTFTSDYSKYLDSKAAHDFVEWLLSA
modifications: Aib at position 2; K(Hexadecanoyl-[4-Aminobutanoyl]) at position 17; C-terminal amide (NH2)
B10: Compound 32 (peptide)
peptide: HXQGTFTSDYSKYLDSXAAHDFVEWLLSA
modifications: Aib at position 2; Orn(Hexadecanoyl-isoGlu) at position 17; C-terminal amide (NH2)
B11: Compound 25 (peptide)
peptide: HXQGTFTSDYSKYLDSKAAHDFVEWLLSA
modifications: Aib at position 2; K(Octadecanoyl-isoGlu) at position 17; C-terminal amide (NH2)
B12: Compound 22 (peptide)
peptide: H-H[Aib]EGTFTSDYSKYLDSK([γGlu-Palmitoyl])AAHDFVEWLLSA-NH2
SMILES: CCCCCCCCCCCCCCCC(=O)N[C@@H](CCC(=O)NCCCC[C@H](NC(=O)[C@H](CO)NC(=O)[C@H](CC(=O)O)NC(=O)[C@H](CC(C)C)NC(=O)[C@H](Cc1ccc(O)cc1)NC(=O)[C@H](CCCCN)NC(=O)[C@H](CO)NC(=O)[C@H](Cc1ccc(O)cc1)NC(=O)[C@H](CC(=O)O)NC(=O)[C@H](CO)NC(=O)[C@@H](NC(=O)[C@H](Cc1ccccc1)NC(=O)[C@@H](NC(=O)CNC(=O)[C@H](CCC(=O)O)NC(=O)C(C)(C)NC(=O)[C@@H](N)Cc1c[nH]cn1)[C@@H](C)O)[C@@H](C)O)C(=O)N[C@@H](C)C(=O)N[C@@H](C)C(=O)N[C@@H](Cc1c[nH]cn1)C(=O)N[C@@H](CC(=O)O)C(=O)N[C@@H](Cc1ccccc1)C(=O)N[C@H](C(=O)N[C@@H](CCC(=O)O)C(=O)N[C@@H](Cc1c[nH]c2ccccc12)C(=O)N[C@@H](CC(C)C)C(=O)N[C@@H](CC(C)C)C(=O)N[C@@H](CO)C(=O)N[C@@H](C)C(N)=O)C(C)C)C(=O)O
B13: Compound 29 (peptide)
peptide: HXQGTFTSDYSKYLDSKAAHDFVEWLLSA
modifications: Aib at position 2; K(Hexadecanoyl-[8-Aminooctanoyl]) at position 17; C-terminal amide (NH2)
B14: Compound 19 (peptide)
peptide: H-H[Aib]QGTFTSDYSKYLDSK([γGlu-Palmitoyl])AAHDFVEWLL-OH
SMILES: CCCCCCCCCCCCCCCC(=O)N[C@@H](CCC(=O)NCCCC[C@H](NC(=O)[C@H](CO)NC(=O)[C@H](CC(=O)O)NC(=O)[C@H](CC(C)C)NC(=O)[C@H](Cc1ccc(O)cc1)NC(=O)[C@H](CCCCN)NC(=O)[C@H](CO)NC(=O)[C@H](Cc1ccc(O)cc1)NC(=O)[C@H](CC(=O)O)NC(=O)[C@H](CO)NC(=O)[C@@H](NC(=O)[C@H](Cc1ccccc1)NC(=O)[C@@H](NC(=O)CNC(=O)[C@H](CCC(N)=O)NC(=O)C(C)(C)NC(=O)[C@@H](N)Cc1c[nH]cn1)[C@@H](C)O)[C@@H](C)O)C(=O)N[C@@H](C)C(=O)N[C@@H](C)C(=O)N[C@@H](Cc1c[nH]cn1)C(=O)N[C@@H](CC(=O)O)C(=O)N[C@@H](Cc1ccccc1)C(=O)N[C@H](C(=O)N[C@@H](CCC(=O)O)C(=O)N[C@@H](Cc1c[nH]c2ccccc12)C(=O)N[C@@H](CC(C)C)C(=O)N[C@@H](CC(C)C)C(=O)O)C(C)C)C(=O)O
B15: Compound 35 (peptide)
peptide: H-H[Aib]QGTFTSDYSKYLDSKAAK([γGlu-Palmitoyl])DFVEWLLSA-NH2
SMILES: CCCCCCCCCCCCCCCC(=O)N[C@@H](CCC(=O)NCCCC[C@H](NC(=O)[C@H](C)NC(=O)[C@H](C)NC(=O)[C@H](CCCCN)NC(=O)[C@H](CO)NC(=O)[C@H](CC(=O)O)NC(=O)[C@H](CC(C)C)NC(=O)[C@H](Cc1ccc(O)cc1)NC(=O)[C@H](CCCCN)NC(=O)[C@H](CO)NC(=O)[C@H](Cc1ccc(O)cc1)NC(=O)[C@H](CC(=O)O)NC(=O)[C@H](CO)NC(=O)[C@@H](NC(=O)[C@H](Cc1ccccc1)NC(=O)[C@@H](NC(=O)CNC(=O)[C@H](CCC(N)=O)NC(=O)C(C)(C)NC(=O)[C@@H](N)Cc1c[nH]cn1)[C@@H](C)O)[C@@H](C)O)C(=O)N[C@@H](CC(=O)O)C(=O)N[C@@H](Cc1ccccc1)C(=O)N[C@H](C(=O)N[C@@H](CCC(=O)O)C(=O)N[C@@H](Cc1c[nH]c2ccccc12)C(=O)N[C@@H](CC(C)C)C(=O)N[C@@H](CC(C)C)C(=O)N[C@@H](CO)C(=O)N[C@@H](C)C(N)=O)C(C)C)C(=O)O
B16: Compound 33 (peptide)
peptide: HXQGTFTSDYSKYLDSKAAHDFVEWLLSA
modifications: Aib at position 2; K(Hexadecanoyl-isoGlu) at position 12; C-terminal amide (NH2)

Experiments:
[1] = biological target: human glucagon-like peptide 1 receptor (GLP-1R) (human, UniProt P43220 24-463); test: cell-based or functional assay
Chain of human glucagon-like peptide 1 receptor (GLP-1R) (P43220 24-463): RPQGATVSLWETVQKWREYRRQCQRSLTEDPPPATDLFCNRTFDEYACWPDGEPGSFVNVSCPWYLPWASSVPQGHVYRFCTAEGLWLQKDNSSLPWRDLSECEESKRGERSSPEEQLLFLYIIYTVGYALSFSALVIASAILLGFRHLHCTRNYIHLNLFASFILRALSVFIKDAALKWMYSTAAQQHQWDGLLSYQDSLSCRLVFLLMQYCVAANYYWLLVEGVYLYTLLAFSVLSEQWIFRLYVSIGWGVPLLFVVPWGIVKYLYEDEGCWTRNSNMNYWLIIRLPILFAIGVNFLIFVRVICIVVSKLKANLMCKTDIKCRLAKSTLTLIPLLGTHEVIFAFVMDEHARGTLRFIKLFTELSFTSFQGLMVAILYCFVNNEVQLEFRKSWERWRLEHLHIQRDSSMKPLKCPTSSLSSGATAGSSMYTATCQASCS

[2] = biological target: human glucagon receptor (Glucagon-R) (human, UniProt P47871 26-477); test: cell-based or functional assay

Row | Binder | EC50 (nM) GLP-1R, cAMP formation [1] | EC50 (nM) GluR, cAMP formation [2]
1 | B1 | 0.077 nM | 0.15 nM
2 | B2 | 0.149 nM | 0.108 nM
3 | B3 | 0.066 nM | 0.091 nM
4 | B4 | 0.161 nM | 0.133 nM
5 | H-H[Aib]QGTFTSDYSKYLDSKAAHDFVK([isoGlu-Palmitoyl])WLLSA-NH2 [Compound 36] | 0.191 nM | 0.213 nM
6 | B5 | 0.132 nM | 0.11 nM
7 | B6 | 0.109 nM | 0.053 nM
8 | B7 | 0.103 nM | 0.151 nM
9 | B8 | 0.057 nM | 13.3 nM
10 | B9 | 0.152 nM | 0.147 nM
11 | HXQGTFTSDYSKYLDSKAAHDFVEWLLSA (Aib at position 2; K(Hexadecanoyl) at position 17; C-terminal amide (NH2)) [Compound 23] | 0.14 nM | 0.124 nM
12 | B10 | 0.195 nM | 0.193 nM
13 | B11 | 0.069 nM | 0.103 nM
14 | B12 | 0.014 nM | 26.4 nM
15 | B13 | 0.199 nM | 0.123 nM
16 | HXQGTFTSDYSKYLDSKAAHDFVEWLLSA (Aib at position 2; K(Dodecanoyl-isoGlu) at position 17; C-terminal amide (NH2)) [Compound 26] | 0.097 nM | 0.116 nM
17 | B14 | 0.048 nM | 0.483 nM
18 | B15 | 0.202 nM | 0.18 nM
19 | B16 | 0.131 nM | 0.389 nM
